Measurements from the supplement of paper PMC9112550, “Optimization of the antimicrobial peptide Bac7 by deep mutational scanning” (BMC Biology, 2022).

test system: Escherichia coli TOP10; experiment: shrunken log2 fold change of peptide-encoding DNA abundance (4.5 h post-induction vs induction); higher = less antimicrobial activity (less host growth inhibition); conditions: time post-induction: 4.5 h; library: site-saturation at positions 5, 18, 19, 20
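Note: peptides expressed intracellularly from a pBAD plasmid library in pooled LB shake-flask culture, induced with 0.3% L-arabinose, DNA abundance read by NGS, three biological replicates, DESeq2 with apeglm shrinkage.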

Row | Sequence | shrunken log2 fold change
1 | RRIRCRPPRLPRPRPRPKWCPRP | -0.105
2 | RRIRVRPPRLPRPRPRPPWGPRP | 0.0932
3 | RRIRVRPPRLPRPRPRPVPNPRP | -0.175
4 | RRIRKRPPRLPRPRPRPFMPPRP | -0.0694
5 | RRIRVRPPRLPRPRPRPQLYPRP | -0.137
6 | RRIRLRPPRLPRPRPRPWISPRP | 0.0832
7 | RRIRNRPPRLPRPRPRPAQSPRP | 0.0508
8 | RRIRRRPPRLPRPRPRPRDHPRP | 0.397
9 | RRIRVRPPRLPRPRPRPGRTPRP | 0.117
10 | RRIRLRPPRLPRPRPRPGMNPRP | -0.72
11 | RRIRIRPPRLPRPRPRPMNDPRP | -0.00303
12 | RRIRTRPPRLPRPRPRPTCIPRP | -0.503
13 | RRIRIRPPRLPRPRPRPFFYPRP | -0.416
14 | RRIRDRPPRLPRPRPRPTQKPRP | 0.268
15 | RRIRCRPPRLPRPRPRPIKPPRP | -0.259
16 | RRIRKRPPRLPRPRPRPTNCPRP | 0.0303
17 | RRIRKRPPRLPRPRPRPMHKPRP | 0.351
18 | RRIRERPPRLPRPRPRPCYDPRP | -1.93
19 | RRIRVRPPRLPRPRPRPILCPRP | 0.0143
20 | RRIRPRPPRLPRPRPRPENSPRP | -0.0155
21 | RRIRRRPPRLPRPRPRPKAWPRP | 0.0767
22 | RRIRNRPPRLPRPRPRPPPTPRP | 0.867
23 | RRIRARPPRLPRPRPRPKTYPRP | -0.214
24 | RRIRVRPPRLPRPRPRPVNAPRP | -0.0836
25 | RRIRFRPPRLPRPRPRPWMLPRP | -0.277

Row | Sequence | shrunken log2 fold change
26 | RRIRNRPPRLPRPRPRPSAKPRP | -0.0395
27 | RRIRNRPPRLPRPRPRPDKNPRP | -0.226
28 | RRIRIRPPRLPRPRPRPSHFPRP | -0.641
29 | RRIRVRPPRLPRPRPRPLHLPRP | -0.133
30 | RRIRCRPPRLPRPRPRPGPNPRP | 0.296
31 | RRIRKRPPRLPRPRPRPRYMPRP | -0.334
32 | RRIRIRPPRLPRPRPRPITGPRP | -0.0492
33 | RRIRYRPPRLPRPRPRPFYIPRP | -1.26
34 | RRIRVRPPRLPRPRPRPCRSPRP | 0.00156
35 | RRIRTRPPRLPRPRPRPQNIPRP | -0.587
36 | RRIRRRPPRLPRPRPRPAATPRP | 0.335
37 | RRIRWRPPRLPRPRPRPSCRPRP | 0.0511
38 | RRIRFRPPRLPRPRPRPRITPRP | -0.657
39 | RRIRNRPPRLPRPRPRPAATPRP | 0.285
40 | RRIRSRPPRLPRPRPRPGRYPRP | -0.344
41 | RRIRQRPPRLPRPRPRPALFPRP | -0.0103
42 | RRIRPRPPRLPRPRPRPCDLPRP | -0.428
43 | RRIRPRPPRLPRPRPRPAPEPRP | 0.346
44 | RRIRNRPPRLPRPRPRPRIMPRP | -0.337
45 | RRIRHRPPRLPRPRPRPVLCPRP | -0.273
46 | RRIRARPPRLPRPRPRPSLAPRP | 0.54
47 | RRIRVRPPRLPRPRPRPHTAPRP | -0.00836
48 | RRIRDRPPRLPRPRPRPHFFPRP | 0.152
49 | RRIRFRPPRLPRPRPRPGGNPRP | 0.149
50 | RRIRARPPRLPRPRPRPWDQPRP | 0.353

Row | Sequence | shrunken log2 fold change
51 | RRIRTRPPRLPRPRPRPPRNPRP | 1.27
52 | RRIRRRPPRLPRPRPRPKVDPRP | 0.0529
53 | RRIRERPPRLPRPRPRPPWRPRP | 0.424
54 | RRIRCRPPRLPRPRPRPYVWPRP | -0.369
55 | RRIRARPPRLPRPRPRPIVTPRP | 0.155
56 | RRIRQRPPRLPRPRPRPPMNPRP | -0.299
57 | RRIRFRPPRLPRPRPRPGRIPRP | 0.0413
58 | RRIRYRPPRLPRPRPRPFCTPRP | -0.425
59 | RRIRIRPPRLPRPRPRPLDPPRP | -0.0309
60 | RRIRERPPRLPRPRPRPARCPRP | 0.114
61 | RRIRKRPPRLPRPRPRPMGDPRP | 0.153
62 | RRIRTRPPRLPRPRPRPATTPRP | -0.181
63 | RRIRSRPPRLPRPRPRPKMRPRP | 0.269
64 | RRIRYRPPRLPRPRPRPFENPRP | -0.257
65 | RRIRNRPPRLPRPRPRPCEKPRP | -0.0478
66 | RRIRRRPPRLPRPRPRPRLIPRP | 0.874
67 | RRIRPRPPRLPRPRPRPHLFPRP | -0.0473
68 | RRIRSRPPRLPRPRPRPRVSPRP | -0.0241
69 | RRIRWRPPRLPRPRPRPYGLPRP | -0.23
70 | RRIRMRPPRLPRPRPRPDYLPRP | -0.051
71 | RRIRMRPPRLPRPRPRPPVIPRP | 0.312
72 | RRIRKRPPRLPRPRPRPFDWPRP | 0.243
73 | RRIRNRPPRLPRPRPRPYIDPRP | 0.0433
74 | RRIRIRPPRLPRPRPRPWFRPRP | -0.129
75 | RRIRRRPPRLPRPRPRPYWYPRP | -0.423

Row | Sequence | shrunken log2 fold change
76 | RRIRRRPPRLPRPRPRPEFDPRP | 0.486
77 | RRIRSRPPRLPRPRPRPAYHPRP | -0.1
78 | RRIRIRPPRLPRPRPRPDEQPRP | 0.0601
79 | RRIRSRPPRLPRPRPRPVDDPRP | -0.14
80 | RRIRVRPPRLPRPRPRPTVQPRP | -0.0375
81 | RRIRPRPPRLPRPRPRPNCAPRP | 0.208
82 | RRIRGRPPRLPRPRPRPEPYPRP | 0.141
83 | RRIRSRPPRLPRPRPRPPWRPRP | 0.614
84 | RRIRKRPPRLPRPRPRPRIGPRP | 0.128
85 | RRIRGRPPRLPRPRPRPNNDPRP | 0.247
86 | RRIRPRPPRLPRPRPRPKKYPRP | -0.555
87 | RRIRGRPPRLPRPRPRPMTGPRP | 0.427
88 | RRIRMRPPRLPRPRPRPCVNPRP | -0.111
89 | RRIRKRPPRLPRPRPRPYMKPRP | -0.134
90 | RRIRGRPPRLPRPRPRPIWYPRP | -0.114
91 | RRIRARPPRLPRPRPRPECNPRP | 0.807
92 | RRIRPRPPRLPRPRPRPGFKPRP | 0.13
93 | RRIRGRPPRLPRPRPRPTFNPRP | 0.31
94 | RRIRERPPRLPRPRPRPKHWPRP | 0.0518
95 | RRIRVRPPRLPRPRPRPKEKPRP | -0.0337
96 | RRIRQRPPRLPRPRPRPFKRPRP | 0.0391
97 | RRIRHRPPRLPRPRPRPGLYPRP | -0.149
98 | RRIRARPPRLPRPRPRPYNSPRP | -1.21
99 | RRIRYRPPRLPRPRPRPGCMPRP | -0.546
100 | RRIRKRPPRLPRPRPRPQLGPRP | 0.378

Row | Sequence | shrunken log2 fold change
101 | RRIRQRPPRLPRPRPRPVKTPRP | 0.139
102 | RRIRQRPPRLPRPRPRPSFNPRP | -0.48
103 | RRIRARPPRLPRPRPRPNWSPRP | 0.225
104 | RRIRMRPPRLPRPRPRPSMSPRP | -0.024
105 | RRIRMRPPRLPRPRPRPWGVPRP | 0.187
106 | RRIRDRPPRLPRPRPRPKKGPRP | 0.26
107 | RRIRGRPPRLPRPRPRPHMHPRP | 0.448
108 | RRIRNRPPRLPRPRPRPHCTPRP | -0.0475
109 | RRIRIRPPRLPRPRPRPPQKPRP | 0.0534
110 | RRIRERPPRLPRPRPRPIQHPRP | -0.529
111 | RRIRYRPPRLPRPRPRPLAAPRP | 0.153
112 | RRIRYRPPRLPRPRPRPFILPRP | -1.19
113 | RRIRRRPPRLPRPRPRPRETPRP | 1.13
114 | RRIRFRPPRLPRPRPRPRNYPRP | -0.236
115 | RRIRRRPPRLPRPRPRPCQIPRP | -0.211
116 | RRIRMRPPRLPRPRPRPVPRPRP | 0.606
117 | RRIRHRPPRLPRPRPRPNAIPRP | 0.0158
118 | RRIRMRPPRLPRPRPRPDRLPRP | 0.55
119 | RRIRGRPPRLPRPRPRPLQWPRP | 0.534
120 | RRIRFRPPRLPRPRPRPCFVPRP | -0.578
121 | RRIRDRPPRLPRPRPRPYNPPRP | -0.309
122 | RRIRFRPPRLPRPRPRPRCYPRP | -0.473
123 | RRIRCRPPRLPRPRPRPFKIPRP | -0.6
124 | RRIRWRPPRLPRPRPRPQRQPRP | 0.123
125 | RRIRQRPPRLPRPRPRPFAYPRP | -0.0651

Row | Sequence | shrunken log2 fold change
126 | RRIRVRPPRLPRPRPRPMVYPRP | -0.17
127 | RRIRVRPPRLPRPRPRPWEMPRP | -0.00133
128 | RRIRIRPPRLPRPRPRPKGKPRP | -0.162
129 | RRIRDRPPRLPRPRPRPTEMPRP | 0.367
130 | RRIRHRPPRLPRPRPRPYWTPRP | 0.0019
131 | RRIRMRPPRLPRPRPRPQMRPRP | 1
132 | RRIRLRPPRLPRPRPRPEPRPRP | 0.74
133 | RRIRVRPPRLPRPRPRPCTGPRP | -1.78
134 | RRIRCRPPRLPRPRPRPAETPRP | -0.035
135 | RRIRHRPPRLPRPRPRPLNIPRP | -0.386
136 | RRIRWRPPRLPRPRPRPIKLPRP | -0.216
137 | RRIRGRPPRLPRPRPRPWDSPRP | -0.479
138 | RRIRYRPPRLPRPRPRPFEVPRP | -0.0115
139 | RRIRWRPPRLPRPRPRPLSQPRP | 0.0157
140 | RRIRRRPPRLPRPRPRPNIVPRP | -0.171
141 | RRIRWRPPRLPRPRPRPWSTPRP | 0.374
142 | RRIRHRPPRLPRPRPRPDRDPRP | -0.0136
143 | RRIRERPPRLPRPRPRPCPQPRP | -0.232
144 | RRIRARPPRLPRPRPRPCLNPRP | -0.424
145 | RRIRRRPPRLPRPRPRPKTQPRP | 0.273
146 | RRIRARPPRLPRPRPRPCLTPRP | 0.158
147 | RRIRHRPPRLPRPRPRPFRSPRP | -0.000777
148 | RRIRWRPPRLPRPRPRPVGQPRP | 0.413
149 | RRIRRRPPRLPRPRPRPKADPRP | 0.198
150 | RRIRMRPPRLPRPRPRPSCEPRP | 0.541
